From patent US12006530B2, “Streptococcal proteases” (priority 2016, dated 2024)

How the values were obtained:
[1] = tested on: porcine IgG; assay: Ig cleavage in porcine plasma or serum, anti-IgG Western blot; assay type: biochemical, pig
Protocol: (§1) (A) 2% porcine plasma was incubated with (+) or without (−) 10 nM purified rIgdE.
(§2) The reaction was analyzed by anti-porcine IgG, IgM and IgA Western blots under reducing conditions. Only cleavage of IgG was observed (*). (B) 0.5 mg/ml IgG of different species was incubated with (+) or without (−) 10 nM purified rIgdE and analyzed by SDS-PAGE under reducing conditions. No cleavage of IgG derived from any other species than pig (*) was observed. The weak protein band of 37 kDa is a contaminant present in lysate preparation (see lane 2) and not related to IgdE activity. Images of different gels have been assembled into one figure.
(§3) Samples for SDS-PAGE were prepared with either reducing or non-reducing sample buffer and heated to 95° C. for 5 min. 12% SDS-PAGE was either stained with Coomassie blue (Sigma), Coomassie Fluor™ Orange Protein Gel Stain (Invitrogen) or blotted to Hybond-P PVDF membrane (GE Healthcare) for western blot analyses. Membranes were blocked with 5% dry milk powder in 0.1% PBS-Tween, followed by incubation with horse-radish peroxidase conjugated antibodies. Goat anti-pig IgG-HRP (Thermo Scientific) and goat anti-porcine IgM-HRP (Thermo Scientific) was diluted 1:25′000 and goat anti-porcine IgA-HRP (Thermo Scientific) was diluted 1:12′500. […]

[2] = tested on: IgG; assay: IgG degrading cysteine protease activity: specificity as summarised; assay type: biochemical; details: summary statement
From the text: Typically, polypeptides for use in accordance with the invention display immunoglobulin cysteine protease activity, and in particular IgG degrading cysteine protease activity. Preferably, the polypeptide cleaves IgG in the hinge region and more particularly in the hinge region of the heavy chain. Preferably, cleavage results in production of Fc and Fab fragments of IgG. Preferably the activity is specific for IgG. The IgG degrading cysteine protease activity may be determined by means of a suitable assay. For example, a test polypeptide may be incubated with IgG at a suitable temperature, such as 37° C. The starting materials and the reaction products may then be analysed by SDS PAGE to determine whether the desired IgG cleavage product is present. Typically this cleavage product is a 32 kDa fragment. Typically there is no further degradation of IgG after this first cleavage. The cleavage product may be subjected to N-terminal sequencing to verify that cleavage has occurred in the hinge region of IgG.
The IgG degrading cysteine protease activity of the polypeptides is generally IgG-specific in that the polypeptides may not degrade other classes of Ig, namely IgM, and IgA, when incubated with these immunoglobulins under conditions that permit cleavage of IgG.

[3] = tested on: human IgG; assay: IgG cleavage by IgdE, SDS-PAGE; assay type: biochemical; details: purified polyclonal IgG, reducing SDS-PAGE
Protocol: (§4) (A) rIgdEagalactiae was incubated with polyclonal IgG of six different species for 18 h at 37° C. and analyzed by SDS-PAGE under reducing conditions. Degradation products are indicated by asterisks (*). Images of different gels have been used to create the figure. (B) rIgdEagalactiae was incubated with human or bovine serum for 18 h in 37° C. and analyzed by SDS-PAGE under reducing conditions. Degradation products are indicated by asterisks (*). (C) Western Blot with crude extracts of rIgdEagalactiae incubated with human and porcine serum for 18 h in 37° C. Membrane was treated with antibodies against human and porcine polyclonal IgG respectively. Degradation products are indicated by asterisks (*). (D) rIgdEagalactiae was incubated with subclasses of human IgG as well as human IgA and IgM for 18 h in 37° C. and analyzed by SDS-PAGE under reducing conditions. Degradation products are indicated by asterisks (*). Images of different gels have been used to create the figure.
(§5) 0.5 mg/ml of porcine IgG (Sigma) in PBS or of other species (human, goat, cow, horse and mouse; all Sigma) were incubated with either crude extracts of induced E. coli carrying S. suis IgdE constructs mentioned above or 10 nM purified rIgdE for 16 h at 37° C. prior subjection to SDS-PAGE under either reducing or non-reducing conditions.
(§6) Samples for SDS-PAGE were prepared with either reducing or non-reducing sample buffer and heated to 95° C. for 5 min. 12% SDS-PAGE was either stained with Coomassie blue (Sigma), Coomassie Fluor™ Orange Protein Gel Stain (Invitrogen) or blotted to Hybond-P PVDF membrane (GE Healthcare) for western blot analyses. Membranes were blocked with 5% dry milk powder in 0.1% PBS-Tween, followed by incubation with horse-radish peroxidase conjugated antibodies. Goat anti-pig IgG-HRP (Thermo Scientific) and goat anti-porcine IgM-HRP (Thermo Scientific) was diluted 1:25′000 and goat anti-porcine IgA-HRP (Thermo Scientific) was diluted 1:12′500. Membranes were thoroughly washed with 0.1% PBS-Tween prior to development with Amersham ECL Select Western blotting detection reagent (GE Healthcare) according to manufactures instruction and pictured by LAS4000 imaging system (Fujifilm).

[4] = tested on: porcine IgG; assay: IgG cleavage by IgdE, SDS-PAGE; assay type: biochemical, pig; details: purified polyclonal IgG, reducing SDS-PAGE
Protocol: (A) Schematic illustration of IgdE and the different rIgdE constructs with potential active site residues substitutions and the C-terminal truncation variant. The secretion signal peptide (residues 1-37) is marked in light grey, the transglutaminase domain is boxed and the potential active site residues and substitutions are indicated. (B) 3.3 μM porcine IgG was incubated for 16 h at 37° C. with soluble fractions of E. coli cells expressing different rIgdE constructs. The reaction was analyzed SDS-PAGE under reducing conditions. […] The weak protein band of 37 kDa is a contaminant present in lysate preparation and not related to IgdE activity.
as §5, §6

[5] = tested on: horse IgG; assay: IgG cleavage by IgdE, SDS-PAGE; assay type: biochemical; details: purified polyclonal IgG, reducing SDS-PAGE
Protocol: as §5, §6

[6] = tested on: cow IgG; assay: IgG cleavage by IgdE, SDS-PAGE; assay type: biochemical; details: purified polyclonal IgG, reducing SDS-PAGE
Protocol: as §5, §6

[7] = tested on: goat IgG; assay: IgG cleavage by IgdE, SDS-PAGE; assay type: biochemical; details: purified polyclonal IgG, reducing SDS-PAGE
Protocol: as §5, §6

[8] = tested on: mouse IgG; assay: IgG cleavage by IgdE, SDS-PAGE; assay type: biochemical; details: purified polyclonal IgG, reducing SDS-PAGE
Protocol: as §5, §6

[9] = tested on: rat IgG; assay: IgG cleavage by IgdE, SDS-PAGE; assay type: biochemical; details: purified polyclonal IgG
[10] = tested on: IgG in human serum; assay: Ig cleavage in human serum, anti-IgG Western blot; assay type: biochemical
Protocol: as §4

[11] = biological target: monoclonal human IgG3 (Homo sapiens, UniProt P01860); assay: Cleavage of human IgG subclasses, SDS-PAGE; assay type: biochemical; details: 18 h, 37° C., reducing SDS-PAGE
monoclonal human IgG3, sequence (P01860 1-377 isoform P01860-1): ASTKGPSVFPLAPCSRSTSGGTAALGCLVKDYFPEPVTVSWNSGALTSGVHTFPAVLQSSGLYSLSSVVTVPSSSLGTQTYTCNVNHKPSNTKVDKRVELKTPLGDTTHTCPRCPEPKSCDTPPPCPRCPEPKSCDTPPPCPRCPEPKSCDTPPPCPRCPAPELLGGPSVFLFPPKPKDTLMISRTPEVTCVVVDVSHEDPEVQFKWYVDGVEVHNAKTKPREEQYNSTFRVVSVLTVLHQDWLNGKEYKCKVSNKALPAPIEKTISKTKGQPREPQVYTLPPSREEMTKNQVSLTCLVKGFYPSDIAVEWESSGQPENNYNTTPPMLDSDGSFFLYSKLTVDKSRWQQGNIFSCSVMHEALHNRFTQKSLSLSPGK
Protocol: as §4

[12] = biological target: monoclonal human IgG4 (Homo sapiens, UniProt P01861); assay: Cleavage of human IgG subclasses, SDS-PAGE; assay type: biochemical; details: 18 h, 37° C., reducing SDS-PAGE
monoclonal human IgG4, sequence (P01861 1-327 isoform P01861-1): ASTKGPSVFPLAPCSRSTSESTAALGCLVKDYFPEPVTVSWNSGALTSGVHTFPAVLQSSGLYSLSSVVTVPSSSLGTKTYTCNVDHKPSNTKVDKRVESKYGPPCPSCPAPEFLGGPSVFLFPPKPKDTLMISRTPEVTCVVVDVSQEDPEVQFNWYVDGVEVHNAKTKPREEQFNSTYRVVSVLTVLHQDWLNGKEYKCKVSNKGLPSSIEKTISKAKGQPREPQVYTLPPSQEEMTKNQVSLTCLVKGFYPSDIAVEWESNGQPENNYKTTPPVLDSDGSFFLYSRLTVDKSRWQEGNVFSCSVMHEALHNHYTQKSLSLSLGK
Protocol: as §4

[13] = tested on: monoclonal human IgG2; assay: Cleavage of human IgG subclasses, SDS-PAGE; assay type: biochemical; details: 18 h, 37° C., reducing SDS-PAGE
Protocol: as §4

[14] = tested on: monoclonal human IgG1; assay: Cleavage of human IgG subclasses, SDS-PAGE; assay type: biochemical; details: 18 h, 37° C., reducing SDS-PAGE
Protocol: as §4

[15] = biological target: T1, human serum IgG1 (Homo sapiens, UniProt P01857); assay: Degradation of human serum IgG1, non-reducing Western blot; assay type: biochemical; details: 18 h at 37° C.
T1 construct: Human serum and monoclonal human IgG1 were incubated in presence (+) or absence (−) of rIgdEagalactiae; from tissue; host or cells: human serum
T1 sequence (P01857 1-330 isoform P01857-1): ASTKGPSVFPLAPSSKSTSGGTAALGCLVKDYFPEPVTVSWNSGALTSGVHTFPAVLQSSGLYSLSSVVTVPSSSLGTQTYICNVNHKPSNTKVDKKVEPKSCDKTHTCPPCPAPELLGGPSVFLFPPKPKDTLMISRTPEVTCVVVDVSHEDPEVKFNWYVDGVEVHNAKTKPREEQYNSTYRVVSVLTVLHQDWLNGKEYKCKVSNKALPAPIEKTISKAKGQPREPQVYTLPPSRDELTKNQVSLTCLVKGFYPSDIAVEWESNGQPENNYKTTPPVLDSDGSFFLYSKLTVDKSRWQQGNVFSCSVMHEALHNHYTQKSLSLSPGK
Protocol: Human serum and monoclonal human IgG1 were incubated in presence (+) or absence (−) of rIgdEagalactiae for 18 h at 37° C. and analyzed by Western blot under non-reducing conditions with a human IgG-specific antibody.

[16] = tested on: porcine IgA; assay: Ig cleavage in porcine plasma or serum, anti-IgA Western blot; assay type: biochemical, pig
Protocol: as §1, §2, §3

Molecule | cleavage of IgG in porcine plasma or serum [1] | immunoglobulin specificity of the IgG degrading cysteine protease activity [2] | cleavage of polyclonal human IgG (32 kDa degradation product) [3] | cleavage of polyclonal porcine IgG (32 kDa degradation product) [4] | cleavage of polyclonal horse IgG [5] | cleavage of polyclonal cow IgG [6] | cleavage of polyclonal goat IgG [7] | cleavage of polyclonal mouse IgG [8] | cleavage of polyclonal rat IgG [9] | cleavage of IgG in human serum [10] | cleavage of monoclonal human IgG3 [11] | cleavage of monoclonal human IgG4 [12] | cleavage of monoclonal human IgG2 [13] | cleavage of monoclonal human IgG1 kappa (32 kDa degradation product) [14] | cleavage of monoclonal human IgG1 lambda (32 kDa degradation product) [14] | degradation of human serum IgG1 [15] | cleavage of IgA in porcine plasma or serum [16]
IgdEpseudoporcinus: IgdE isolated from S. pseudoporcinus strain ATCC BAA-1381, SEQ ID NO: 9 (protein, listed as Streptococcus pseudoporcinus) RENENVRQLQSENKQMKAVNLQEFSEKLKGEIAENQQFHIFKLGLNNYYIGGVRINELSDLAKNHDFIMIDNRATHNKYGVPHIIIMNKDDVIVHNQEDYNKEMAELTFAGDKPIQSDSYLPQKKRIHALFEIGLDSNRRQLLNAAGLKTPENSVIELDTFKIYSHGLAVDNKYYDEYSHFNNNTNVNITKQRFTENDNLIHNLITTSTAKDQPTDRDKVKTFVMYVANHTIYDWNAANNAVSNISDVNYYLGSDLFSITERKKAMCVGFSTTAARAFNMLGIPAYVVEGKNAQGVDHATARVYYNGKWHTIDGTGFINGNRTRSTLYTESHFRSVGEDSYQLVGLNEDIPFDRNYMKIDKVYEEWAPKQKTADLLLVNKDKSLVGLDRVAYVEPVYVDKNRQDALTQIYKKLKETMESSSKKNPSSGGFSSLLGSASSDIAKLEGSSQLTQEEYDKIHRSMTSILTFFAQLDKDAAEAFEKGNDYKNYLATTKHAQ | cleaved IgG in human and porcine serum | specific for porcine IgG | cleaved | cleaved | No degradation product was observed | No degradation product was observed | No degradation product was observed | No degradation product was observed | No degradation product was observed | cleaved IgG in human and porcine serum | – | – | – | – | – | – | –
IgdEagalactiae: IgdE isolated from S. agalactiae strain CCUG4208, SEQ ID NO: 3 (protein, listed as Streptococcus agalactiae) NQNNIQETNLVEKNSEDKFIQELNRYKTEIPNFKGFNVWILGDKGYYKNLINLEEIKNIQATLKKERNEEYVFVKLNGKIAHDTTVFLMNKKHKLLKNIEEFKTITQKRLTERGKFPYDTVHSTFEIKDENFIMERLKSSGLSMGKPVDYMGVNGIPIYTKTLSIDNKFAFENNSKDSSYSSNINISEDKIKENDQKILDLIVKSGANNQNLTDEEKVIAFTKYIGEITNYDNEAYRARNVDTEYYRASDLFSVTERKLAMCVGYSVTAARAFNIMGIPSYVVSGKSPQGISHAAVRAYYNRSWHIIDITASTYWKNGNYKTTYSDFIKEYCIDGYDVYDPAKTNNRFKVKYMESNEAFENWIHNNGSKSMLFINESAALKDKKPKDDFVPVTEKEKNELIDKYKKLLSQIPENTQNPGEKNIRDYLKNEYEEILKKDNLFEHEHAEFKESLNLNESFYLQLKKEEKKPSDNLKKEEKPRENSVKERETPAENNDFVSVTEKNNLIDKYKELLSKIPENTQNPGEKNIRNYLEKEYEELLQKDKLFKHEYTEFTKSLNLNETFYSQLKEGEMKLSENPEKGETNTN | – | specific for human IgG, and specifically human IgG1 | cleaved | No degradation product was observed | No degradation product was observed | No degradation product was observed | No degradation product was observed | No degradation product was observed | – | cleaved IgG in human serum | No degradation product was observed | No degradation product was observed | No degradation product was observed | cleaved | cleaved | degrades human serum IgG1 completely to single cleaved IgG1 | –
IgdEporcinus: IgdE isolated from S. porcinus strain DSM20725, SEQ ID NO: 5 (protein, listed as Streptococcus porcinus) AVLARENSNSGQLHPEARQIKAVDFQEFSKKLKEEISENQQFHVFKLGMNNYYRSGIRINELNNLATEHDFILVNDHASHKKYDVPHIFIMNKGDVIVPSKEKYDEQMREVKFAGDQPNAQRQRIHALFEIGLDSNKRQLLNAAGLGTAENTLAKVDGFTIYSHGLTVDNKYYEDYIRFNKNENINITKERFTANDNLIHNLITESTAKVQTNDRDKVKAFVMYVANHTIYDWIAANNAVSNISDVNYYLGSDLFSITERKKAMCVGFSTTAARAFNMLGIPAYVVVGKNAQGVDHATARAYYNGKWHTIDGTGFINDKASRSTIYSENHFYSIGEDSYNIVDVNDEQIAFDKNYMKIDKVFEEWAQKQPTADLLLINKDKSLVPSNYVAYVAPVIVDNNRKGSLTQIYQNLKQVMESSSQKASLTSLLNTATADIAKLQTSSQLTQEDYNQIQNSMKSVLSFFWQLDKDSATNFENSEDYKKYLTETKNAGN | cleaved IgG in porcine serum | specific for porcine IgG | No degradation product was observed | cleaved | No degradation product was observed | No degradation product was observed | No degradation product was observed | No degradation product was observed | – | – | – | – | – | – | – | – | but not IgM or IgA
